Measurements as given in patent publication US20130137628A1.

Biological target: ATP-binding cassette transporter A1 (ABCA1) on RAW 264.7 murine macrophage cells (murine) (UniProt P41233)
Experiment: cell-based or functional assay

Sequence of UniProt P41233 (P41233 whole entry): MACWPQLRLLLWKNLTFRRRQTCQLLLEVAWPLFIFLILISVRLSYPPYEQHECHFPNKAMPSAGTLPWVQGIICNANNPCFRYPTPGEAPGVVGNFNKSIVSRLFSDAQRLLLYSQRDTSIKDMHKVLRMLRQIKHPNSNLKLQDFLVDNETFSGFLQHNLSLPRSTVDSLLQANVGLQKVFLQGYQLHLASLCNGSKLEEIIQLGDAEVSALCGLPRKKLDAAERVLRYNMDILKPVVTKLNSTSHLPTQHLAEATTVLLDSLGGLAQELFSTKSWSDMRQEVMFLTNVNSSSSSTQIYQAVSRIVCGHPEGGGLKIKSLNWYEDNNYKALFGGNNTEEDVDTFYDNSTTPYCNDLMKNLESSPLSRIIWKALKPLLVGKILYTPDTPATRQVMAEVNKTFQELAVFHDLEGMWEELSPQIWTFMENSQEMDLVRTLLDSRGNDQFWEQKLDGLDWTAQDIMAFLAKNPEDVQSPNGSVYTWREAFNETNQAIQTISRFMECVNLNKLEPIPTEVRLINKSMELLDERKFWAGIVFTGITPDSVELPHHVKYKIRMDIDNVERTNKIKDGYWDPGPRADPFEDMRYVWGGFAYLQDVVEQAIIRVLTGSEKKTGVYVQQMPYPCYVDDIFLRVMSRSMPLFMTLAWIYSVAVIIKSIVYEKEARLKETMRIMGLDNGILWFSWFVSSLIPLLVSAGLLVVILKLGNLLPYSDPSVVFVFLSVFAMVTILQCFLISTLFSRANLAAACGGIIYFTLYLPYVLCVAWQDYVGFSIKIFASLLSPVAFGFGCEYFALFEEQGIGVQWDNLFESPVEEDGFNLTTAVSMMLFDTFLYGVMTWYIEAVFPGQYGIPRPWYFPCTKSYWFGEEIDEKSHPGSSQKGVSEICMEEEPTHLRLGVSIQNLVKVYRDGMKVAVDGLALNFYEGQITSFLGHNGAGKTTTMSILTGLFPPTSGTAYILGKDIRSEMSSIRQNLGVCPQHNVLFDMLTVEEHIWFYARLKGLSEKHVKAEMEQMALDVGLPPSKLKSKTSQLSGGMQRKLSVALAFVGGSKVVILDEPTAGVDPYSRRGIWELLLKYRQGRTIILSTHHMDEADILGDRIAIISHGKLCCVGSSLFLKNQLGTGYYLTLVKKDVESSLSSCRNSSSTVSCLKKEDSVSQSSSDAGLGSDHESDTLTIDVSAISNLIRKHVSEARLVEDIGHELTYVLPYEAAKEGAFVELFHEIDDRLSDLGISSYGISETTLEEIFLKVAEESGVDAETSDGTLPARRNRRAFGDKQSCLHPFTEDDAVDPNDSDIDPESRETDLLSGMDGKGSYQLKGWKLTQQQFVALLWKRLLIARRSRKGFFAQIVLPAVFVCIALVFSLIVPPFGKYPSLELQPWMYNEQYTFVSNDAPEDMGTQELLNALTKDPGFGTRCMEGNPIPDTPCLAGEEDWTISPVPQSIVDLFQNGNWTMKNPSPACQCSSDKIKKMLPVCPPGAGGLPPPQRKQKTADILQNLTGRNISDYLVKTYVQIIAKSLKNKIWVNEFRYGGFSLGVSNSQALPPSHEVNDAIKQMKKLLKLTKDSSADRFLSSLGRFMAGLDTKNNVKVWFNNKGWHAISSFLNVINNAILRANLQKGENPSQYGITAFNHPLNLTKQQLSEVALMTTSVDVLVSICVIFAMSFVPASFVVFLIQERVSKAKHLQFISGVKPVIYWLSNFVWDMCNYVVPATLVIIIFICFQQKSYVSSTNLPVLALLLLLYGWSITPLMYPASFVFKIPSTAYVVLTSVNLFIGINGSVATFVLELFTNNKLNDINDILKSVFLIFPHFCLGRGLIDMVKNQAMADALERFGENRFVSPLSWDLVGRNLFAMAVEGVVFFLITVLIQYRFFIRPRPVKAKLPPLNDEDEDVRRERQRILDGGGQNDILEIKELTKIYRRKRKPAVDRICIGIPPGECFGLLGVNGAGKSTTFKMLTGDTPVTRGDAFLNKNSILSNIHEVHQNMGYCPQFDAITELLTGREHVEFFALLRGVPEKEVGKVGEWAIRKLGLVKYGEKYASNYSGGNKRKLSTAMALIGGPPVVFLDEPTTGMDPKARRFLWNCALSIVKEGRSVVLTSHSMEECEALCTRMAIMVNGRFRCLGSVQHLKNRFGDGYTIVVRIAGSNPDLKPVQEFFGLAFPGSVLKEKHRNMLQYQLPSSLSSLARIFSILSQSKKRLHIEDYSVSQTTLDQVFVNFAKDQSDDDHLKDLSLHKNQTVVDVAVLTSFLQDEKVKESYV

Substance: recombinant wild type ApoA1 after MPO/HOCl-mediated oxidative damage (from UniProt P02647 25-267)
- ABCA-1-dependent cholesterol efflux ability (reduction upon MPO/HOCl-mediated oxidative damage), RAW 264.7 cells, [3H]-cholesterol: 75 to 80%
